Laboratory results reported in the Human Domainome abundance scans (Beltran et al. 2025).
± gives the uncertainty stated by the source.

B1: Nuclear receptor subfamily 4 group A member 2, residues 260 to 336; numbered along this chain, P43354 (parent)
chain: EGLCAVCGDNAACQHYGVRTCEGCKGFFKRTVQKNAKYVCLANKNCPVDKRRRNRCQYCRFQKCLAVGMVKEVVRTD

Variants of: B1
Assay: abundance fitness (aPCA) (normalised: wild type 0, dead -1); higher = more abundant; growth selection in yeast, the domain comes from the species named
Settings: Homo sapiens

Variant	abundance fitness
N43M	-0.173 ± 0.27
N43W	-0.011 ± 0.16
N43P	-0.219 ± 0.21
N43A	0.245 ± 0.12
N43Q	-0.283 ± 0.29
N43I	-0.231 ± 0.24
N43L	-0.059 ± 0.14
N43F	0.046 ± 0.46
N43E	-0.198 ± 0.16
N43T	-0.505 ± 0.33
N43S	-0.123 ± 0.15
N43V	-0.014 ± 0.1
N43G	-0.202 ± 0.12
N43R	-0.014 ± 0.15
L41Q	-0.248 ± 0.27
L41S	-0.072 ± 0.16
L41K	-0.167 ± 0.25
L41V	0.022 ± 0.15
L41M	0.039 ± 0.11
L41H	-0.069 ± 0.37
L41G	-0.109 ± 0.11
L41R	-0.064 ± 0.095
L41P	0.241 ± 0.27
L41T	-0.08 ± 0.22

Variant	abundance fitness
L41E	0.064 ± 0.17
L41A	-0.025 ± 0.29
F27Y	-0.846 ± 0.33
F27I	-0.705 ± 0.47
F27A	-1.06 ± 0.25
F27G	-0.99 ± 0.17
F27H	-0.624 ± 0.36
F27L	-0.431 ± 0.085
F27S	-1.12 ± 0.29
F27T	-1.04 ± 0.33
F27V	-0.934 ± 0.18
F27K	-0.691 ± 0.25
F27R	-0.975 ± 0.15
F27E	-0.959 ± 0.33
F27W	-0.126 ± 0.071
F27M	-0.584 ± 0.2
K50R	-0.193 ± 0.082
K50Y	0.024 ± 0.13
K50A	-0.098 ± 0.088
K50S	-0.001 ± 0.097
K50W	-0.031 ± 0.057
K50T	0.102 ± 0.24
K50F	-0.055 ± 0.094
K50C	-0.115 ± 0.074

Variant	abundance fitness
K50L	-0.155 ± 0.073
K50D	-0.215 ± 0.17
K50G	-0.045 ± 0.037
K50E	0.175 ± 0.15
K50P	0.356 ± 0.29
K44M	0.037 ± 0.14
K44L	-0.096 ± 0.16
K44R	-0.03 ± 0.12
K44G	-0.052 ± 0.09
K44V	-0.371 ± 0.21
K44H	-0.129 ± 0.25
K44A	-0.265 ± 0.24
K44Y	-0.053 ± 0.37
K44C	-0.464 ± 0.21
K44W	-0.126 ± 0.17
K44T	-0.028 ± 0.15
K44D	-0.093 ± 0.16
K37F	-0.362 ± 0.48
K37E	-0.177 ± 0.18
K37A	-0.197 ± 0.11
K37R	-0.099 ± 0.081
K37G	-0.07 ± 0.073
K37V	-0.118 ± 0.1
K37D	-0.07 ± 0.27

Variant	abundance fitness
K37Y	0.019 ± 0.21
K37M	0.11 ± 0.16
K37Q	-0.041 ± 0.17
K37S	-0.213 ± 0.13
K37C	-0.134 ± 0.25
K37P	-0.008 ± 0.16
K37H	-0.124 ± 0.18
K37T	0.067 ± 0.15
Y58A	0.041 ± 0.085
V39P	0.158 ± 0.23
V39L	-0.153 ± 0.2
V39E	-0.058 ± 0.16
V39W	0.017 ± 0.17
V39S	0.071 ± 0.13
V39G	-0.616 ± 0.18
V39A	-0.107 ± 0.17
V39Y	-0.309 ± 0.29
V39R	-0.055 ± 0.097
V39Q	-0.244 ± 0.31
G26W	-0.388 ± 0.091
G26T	0.051 ± 0.13
G26V	-0.191 ± 0.096
Q33R	-0.252 ± 0.37
Q33L	-0.049 ± 0.25

Variant	abundance fitness
Q33K	-0.035 ± 0.23
R53F	-0.101 ± 0.088
R53M	-0.28 ± 0.25
R53E	-0.034 ± 0.12
R53A	0.078 ± 0.11
R53D	-0.175 ± 0.18
R53C	-0.078 ± 0.061
R53G	0.06 ± 0.037
R53I	-0.043 ± 0.22
R53Y	-0.3 ± 0.37
R53S	0.084 ± 0.084
R53Q	0.172 ± 0.3
R53V	0.019 ± 0.042
R53L	-0.12 ± 0.061
R51L	0.042 ± 0.056
R51G	-0.001 ± 0.034
R51M	0.019 ± 0.3
R51V	-0.035 ± 0.041
R51T	0.166 ± 0.21
R51C	-0.188 ± 0.09
R51Y	-0.109 ± 0.17
R51E	0.082 ± 0.12
R51F	0.064 ± 0.096
R51W	0.054 ± 0.051

Variant	abundance fitness
F28Y	0.23 ± 0.26
F28C	-0.483 ± 0.36
F28W	-0.095 ± 0.066
F28A	-0.1 ± 0.063
F28K	-0.981 ± 0.33
F28R	-0.75 ± 0.11
F28P	-1.06 ± 0.35
F28Q	-0.484 ± 0.13
F28E	-1.29 ± 0.45
F28S	-0.381 ± 0.095
F28V	-0.017 ± 0.054
F28L	-0.15 ± 0.077
F28T	-0.049 ± 0.083
F28M	-0.176 ± 0.11
F28N	-0.707 ± 0.43
F28I	-0.262 ± 0.18
F28D	-0.747 ± 0.5
F28H	-0.114 ± 0.29
C40W	-0.761 ± 0.31
C40R	-0.799 ± 0.4
C40Y	0.296 ± 0.32
V32K	-0.532 ± 0.26
V32C	-0.071 ± 0.36
V32E	0.101 ± 0.45

Variant	abundance fitness
V32R	0.256 ± 0.2
V32A	0.211 ± 0.23
V32H	-0.224 ± 0.27
V32T	0.036 ± 0.34
V32L	-0.511 ± 0.41
Y38H	0.149 ± 0.23
Y38V	-0.057 ± 0.39
Y38C	-0.026 ± 0.49
A42W	-0.305 ± 0.23
A42M	-0.208 ± 0.43
A42T	0.002 ± 0.13
A42K	0.629 ± 0.5
A42R	-0.255 ± 0.12
A42I	-0.183 ± 0.23
A42G	-0.09 ± 0.28
A42N	-0.452 ± 0.49
A42V	-0.09 ± 0.14
A42S	0.048 ± 0.17
P47S	-0.076 ± 0.12
P47E	-0.083 ± 0.17
P47M	-0.239 ± 0.48
P47R	-0.102 ± 0.092
P47D	0.106 ± 0.098
